Measurements: patent US20140080757A1 (ZEALAND PHARMA A S, published 2014)
Numbered stars: 1 amine (or outer) side, 2 acyl side, 3 side chain; on linkers, the order of the positions; unused ones are H or OH. Square brackets hold non-standard residues; d marks the D form. Side chains are listed from the residue outwards. * marks the point of attachment. γGlu = O=C(O)[C@H](CCC(=O)[*:2])N[*:1]; Palmitoyl = CCCCCCCCCCCCCCCC(=O)*; Aib = CC(C)(N)C(=O)O

How the values were obtained:
Experiment in all cases: cell-based or functional assay
[1] = biological target: T1, endogenous GLP-1 receptor of a murine insulinoma cell line (murine, UniProt O35659 22-463)
T1 sequence (looked up): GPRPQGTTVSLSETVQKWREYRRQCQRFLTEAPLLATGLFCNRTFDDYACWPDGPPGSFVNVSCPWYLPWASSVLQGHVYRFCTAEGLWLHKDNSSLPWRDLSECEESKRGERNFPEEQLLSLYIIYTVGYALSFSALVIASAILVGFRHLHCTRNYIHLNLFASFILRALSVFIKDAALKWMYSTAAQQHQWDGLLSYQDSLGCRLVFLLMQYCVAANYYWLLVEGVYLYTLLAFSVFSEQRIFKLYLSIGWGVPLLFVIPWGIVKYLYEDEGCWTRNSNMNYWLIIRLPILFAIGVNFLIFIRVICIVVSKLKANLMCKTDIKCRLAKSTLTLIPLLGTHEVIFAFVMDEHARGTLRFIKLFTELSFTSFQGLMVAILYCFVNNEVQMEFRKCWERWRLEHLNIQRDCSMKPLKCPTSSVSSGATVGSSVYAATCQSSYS

[2] = biological target: human glucagon receptor (Glucagon-R) (human, UniProt P47871 26-477)
human glucagon receptor (Glucagon-R), sequence (P47871 26-477): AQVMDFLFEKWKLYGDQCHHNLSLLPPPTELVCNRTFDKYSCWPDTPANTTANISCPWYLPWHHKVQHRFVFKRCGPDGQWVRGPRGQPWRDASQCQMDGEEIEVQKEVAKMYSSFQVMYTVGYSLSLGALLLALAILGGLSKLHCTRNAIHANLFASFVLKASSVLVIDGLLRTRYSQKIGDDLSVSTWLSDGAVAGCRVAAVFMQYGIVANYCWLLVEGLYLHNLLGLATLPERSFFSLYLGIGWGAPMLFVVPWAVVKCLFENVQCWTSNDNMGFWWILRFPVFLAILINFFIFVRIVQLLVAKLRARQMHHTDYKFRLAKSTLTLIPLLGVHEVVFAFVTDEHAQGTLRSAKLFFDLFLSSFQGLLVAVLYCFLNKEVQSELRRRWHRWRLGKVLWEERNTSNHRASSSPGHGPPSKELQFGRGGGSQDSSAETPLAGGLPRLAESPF

[3] = biological target: human glucagon-like peptide 1 receptor (GLP-1R) (human, UniProt P43220 24-463)
[4] = biological target: endogenous glucagon receptor of primary rat hepatocytes (rat, UniProt P30082 27-485)
endogenous glucagon receptor of primary rat hepatocytes, sequence (P30082 27-485): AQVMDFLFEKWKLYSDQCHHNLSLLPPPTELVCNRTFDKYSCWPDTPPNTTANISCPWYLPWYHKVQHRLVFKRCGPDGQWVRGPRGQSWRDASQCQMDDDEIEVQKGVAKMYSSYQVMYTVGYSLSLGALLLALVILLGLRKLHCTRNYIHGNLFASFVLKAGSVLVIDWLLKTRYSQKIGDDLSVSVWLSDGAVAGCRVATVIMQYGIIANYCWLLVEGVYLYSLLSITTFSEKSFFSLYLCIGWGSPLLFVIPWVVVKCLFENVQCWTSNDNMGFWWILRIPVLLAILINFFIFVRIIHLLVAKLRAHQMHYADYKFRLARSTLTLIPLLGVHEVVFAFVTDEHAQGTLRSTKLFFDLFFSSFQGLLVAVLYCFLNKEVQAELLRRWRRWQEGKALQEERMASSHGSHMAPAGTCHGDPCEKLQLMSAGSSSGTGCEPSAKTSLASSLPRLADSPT

B1: Compound 11 (peptide)
peptide: H-H[Aib]QGTFTSDYSKYLDEK([γGlu-Palmitoyl])RAKDFIEWLLS-OH
SMILES: CCCCCCCCCCCCCCCC(=O)N[C@@H](CCC(=O)NCCCC[C@H](NC(=O)[C@H](CCC(=O)O)NC(=O)[C@H](CC(=O)O)NC(=O)[C@H](CC(C)C)NC(=O)[C@H](Cc1ccc(O)cc1)NC(=O)[C@H](CCCCN)NC(=O)[C@H](CO)NC(=O)[C@H](Cc1ccc(O)cc1)NC(=O)[C@H](CC(=O)O)NC(=O)[C@H](CO)NC(=O)[C@@H](NC(=O)[C@H](Cc1ccccc1)NC(=O)[C@@H](NC(=O)CNC(=O)[C@H](CCC(N)=O)NC(=O)C(C)(C)NC(=O)[C@@H](N)Cc1c[nH]cn1)[C@@H](C)O)[C@@H](C)O)C(=O)N[C@@H](CCCNC(=N)N)C(=O)N[C@@H](C)C(=O)N[C@@H](CCCCN)C(=O)N[C@@H](CC(=O)O)C(=O)N[C@@H](Cc1ccccc1)C(=O)N[C@H](C(=O)N[C@@H](CCC(=O)O)C(=O)N[C@@H](Cc1c[nH]c2ccccc12)C(=O)N[C@@H](CC(C)C)C(=O)N[C@@H](CC(C)C)C(=O)N[C@@H](CO)C(=O)O)[C@@H](C)CC)C(=O)O
- EC50 GLP-1R (murine insulinoma cells) [nM] (cAMP) [1]: 1.01 nM
- EC50 hGCGR CHO-K1 [nM] (cAMP) [2]: 0.61 nM
- EC50 hGLP-1R CHO-K1 [nM] (cAMP) [3]: 0.64 nM
- Ratio GLP-1/Glucagon (EC50 hGLP-1R / EC50 hGCGR) [3]: 1.05 ratio

B2: Compound 3 (peptide)
peptide: H-HSQGTFTSDYSKYLDSK([γGlu-Palmitoyl])AAHDFVEWLLRA-OH
SMILES: CCCCCCCCCCCCCCCC(=O)N[C@@H](CCC(=O)NCCCC[C@H](NC(=O)[C@H](CO)NC(=O)[C@H](CC(=O)O)NC(=O)[C@H](CC(C)C)NC(=O)[C@H](Cc1ccc(O)cc1)NC(=O)[C@H](CCCCN)NC(=O)[C@H](CO)NC(=O)[C@H](Cc1ccc(O)cc1)NC(=O)[C@H](CC(=O)O)NC(=O)[C@H](CO)NC(=O)[C@@H](NC(=O)[C@H](Cc1ccccc1)NC(=O)[C@@H](NC(=O)CNC(=O)[C@H](CCC(N)=O)NC(=O)[C@H](CO)NC(=O)[C@@H](N)Cc1c[nH]cn1)[C@@H](C)O)[C@@H](C)O)C(=O)N[C@@H](C)C(=O)N[C@@H](C)C(=O)N[C@@H](Cc1c[nH]cn1)C(=O)N[C@@H](CC(=O)O)C(=O)N[C@@H](Cc1ccccc1)C(=O)N[C@H](C(=O)N[C@@H](CCC(=O)O)C(=O)N[C@@H](Cc1c[nH]c2ccccc12)C(=O)N[C@@H](CC(C)C)C(=O)N[C@@H](CC(C)C)C(=O)N[C@@H](CCCNC(=N)N)C(=O)N[C@@H](C)C(=O)O)C(C)C)C(=O)O
- EC50 GLP-1R (murine insulinoma cells) [nM] (cAMP) [1]: 1.06 nM
- EC50 GLP-1R Rat hepat. [nM] (inhibition of glycogen synthesis) [4]: 0.16 nM
- EC50 hGCGR CHO-K1 [nM] (cAMP) [2]: 0.35 nM
- EC50 hGLP-1R CHO-K1 [nM] (cAMP) [3]: 0.91 nM
- Ratio GLP-1/Glucagon (EC50 hGLP-1R / EC50 hGCGR) [3]: 2.6 ratio

B3: Compound 1 (peptide)
peptide: H-H[Aib]QGTFTSDYSKYLDSK([γGlu-Palmitoyl])AAHDFVEWLLS-OH
SMILES: CCCCCCCCCCCCCCCC(=O)N[C@@H](CCC(=O)NCCCC[C@H](NC(=O)[C@H](CO)NC(=O)[C@H](CC(=O)O)NC(=O)[C@H](CC(C)C)NC(=O)[C@H](Cc1ccc(O)cc1)NC(=O)[C@H](CCCCN)NC(=O)[C@H](CO)NC(=O)[C@H](Cc1ccc(O)cc1)NC(=O)[C@H](CC(=O)O)NC(=O)[C@H](CO)NC(=O)[C@@H](NC(=O)[C@H](Cc1ccccc1)NC(=O)[C@@H](NC(=O)CNC(=O)[C@H](CCC(N)=O)NC(=O)C(C)(C)NC(=O)[C@@H](N)Cc1c[nH]cn1)[C@@H](C)O)[C@@H](C)O)C(=O)N[C@@H](C)C(=O)N[C@@H](C)C(=O)N[C@@H](Cc1c[nH]cn1)C(=O)N[C@@H](CC(=O)O)C(=O)N[C@@H](Cc1ccccc1)C(=O)N[C@H](C(=O)N[C@@H](CCC(=O)O)C(=O)N[C@@H](Cc1c[nH]c2ccccc12)C(=O)N[C@@H](CC(C)C)C(=O)N[C@@H](CC(C)C)C(=O)N[C@@H](CO)C(=O)O)C(C)C)C(=O)O
- EC50 GLP-1R (murine insulinoma cells) [nM] (cAMP) [1]: 1.47 nM
- EC50 hGCGR CHO-K1 [nM] (cAMP) [2]: 0.9 nM
- EC50 hGLP-1R CHO-K1 [nM] (cAMP) [3]: 0.54 nM
- Ratio GLP-1/Glucagon (EC50 hGLP-1R / EC50 hGCGR) [3]: 0.6 ratio

Binder: HXQGTFTSDYSKYLDEXAAKDFIEWLLSA (Aib at position 2; Lys 17 K(Hexadecanoyl-isoGlu); C-terminal amide (-NH2)) [Compound 4]
- EC50 GLP-1R (murine insulinoma cells) [nM] (cAMP) [1]: 0.95 nM
- EC50 GLP-1R Rat hepat. [nM] (inhibition of glycogen synthesis) [4]: 0.35 nM
- EC50 hGCGR CHO-K1 [nM] (cAMP) [2]: 1.56 nM
- EC50 hGLP-1R CHO-K1 [nM] (cAMP) [3]: 0.38 nM
- Ratio GLP-1/Glucagon (EC50 hGLP-1R / EC50 hGCGR) [3]: 0.24 ratio

B4: Compound 5 (peptide)
peptide: H-H[Aib]QGTFTSDYSKYLDSK([γGlu-Palmitoyl])AAHDFVEWLESA-NH2
SMILES: CCCCCCCCCCCCCCCC(=O)N[C@@H](CCC(=O)NCCCC[C@H](NC(=O)[C@H](CO)NC(=O)[C@H](CC(=O)O)NC(=O)[C@H](CC(C)C)NC(=O)[C@H](Cc1ccc(O)cc1)NC(=O)[C@H](CCCCN)NC(=O)[C@H](CO)NC(=O)[C@H](Cc1ccc(O)cc1)NC(=O)[C@H](CC(=O)O)NC(=O)[C@H](CO)NC(=O)[C@@H](NC(=O)[C@H](Cc1ccccc1)NC(=O)[C@@H](NC(=O)CNC(=O)[C@H](CCC(N)=O)NC(=O)C(C)(C)NC(=O)[C@@H](N)Cc1c[nH]cn1)[C@@H](C)O)[C@@H](C)O)C(=O)N[C@@H](C)C(=O)N[C@@H](C)C(=O)N[C@@H](Cc1c[nH]cn1)C(=O)N[C@@H](CC(=O)O)C(=O)N[C@@H](Cc1ccccc1)C(=O)N[C@H](C(=O)N[C@@H](CCC(=O)O)C(=O)N[C@@H](Cc1c[nH]c2ccccc12)C(=O)N[C@@H](CC(C)C)C(=O)N[C@@H](CCC(=O)O)C(=O)N[C@@H](CO)C(=O)N[C@@H](C)C(N)=O)C(C)C)C(=O)O
- EC50 GLP-1R (murine insulinoma cells) [nM] (cAMP) [1]: 0.54 nM
- EC50 GLP-1R Rat hepat. [nM] (inhibition of glycogen synthesis) [4]: 0.03 nM
- EC50 hGCGR CHO-K1 [nM] (cAMP) [2]: 0.46 nM
- EC50 hGLP-1R CHO-K1 [nM] (cAMP) [3]: 0.16 nM
- Ratio GLP-1/Glucagon (EC50 hGLP-1R / EC50 hGCGR) [3]: 0.35 ratio

B5: Compound 2 (peptide)
peptide: H-HSQGTFTSDYSKYLDSK([γGlu-Palmitoyl])AAHDFVEWLLSA-OH
SMILES: CCCCCCCCCCCCCCCC(=O)N[C@@H](CCC(=O)NCCCC[C@H](NC(=O)[C@H](CO)NC(=O)[C@H](CC(=O)O)NC(=O)[C@H](CC(C)C)NC(=O)[C@H](Cc1ccc(O)cc1)NC(=O)[C@H](CCCCN)NC(=O)[C@H](CO)NC(=O)[C@H](Cc1ccc(O)cc1)NC(=O)[C@H](CC(=O)O)NC(=O)[C@H](CO)NC(=O)[C@@H](NC(=O)[C@H](Cc1ccccc1)NC(=O)[C@@H](NC(=O)CNC(=O)[C@H](CCC(N)=O)NC(=O)[C@H](CO)NC(=O)[C@@H](N)Cc1c[nH]cn1)[C@@H](C)O)[C@@H](C)O)C(=O)N[C@@H](C)C(=O)N[C@@H](C)C(=O)N[C@@H](Cc1c[nH]cn1)C(=O)N[C@@H](CC(=O)O)C(=O)N[C@@H](Cc1ccccc1)C(=O)N[C@H](C(=O)N[C@@H](CCC(=O)O)C(=O)N[C@@H](Cc1c[nH]c2ccccc12)C(=O)N[C@@H](CC(C)C)C(=O)N[C@@H](CC(C)C)C(=O)N[C@@H](CO)C(=O)N[C@@H](C)C(=O)O)C(C)C)C(=O)O
- EC50 GLP-1R (murine insulinoma cells) [nM] (cAMP) [1]: 1.41 nM
- EC50 GLP-1R Rat hepat. [nM] (inhibition of glycogen synthesis) [4]: 0.43 nM
- EC50 hGCGR CHO-K1 [nM] (cAMP) [2]: 0.31 nM
- EC50 hGLP-1R CHO-K1 [nM] (cAMP) [3]: 0.77 nM
- Ratio GLP-1/Glucagon (EC50 hGLP-1R / EC50 hGCGR) [3]: 2.48 ratio
